We go through one protein from article PMC10480196, “Glycerol biosynthetic pathway plays an essential role in proliferation and antioxidative defense in the human enteric protozoan parasite Entamoeba histolytica” (Scientific Reports, 2023).

Holding throughout (assay type): biochemical, Entamoeba histolytica
Substrate in data set [1]: Nc1ncnc2c1ncn2[C@@H]1O[C@H](COP(=O)(O)OP(=O)(O)OP(=O)(O)O)[C@@H](O)[C@H]1O
Briefly: coupled fluorescence assay (ADP hexokinase, G6P dehydrogenase, diaphorase; resazurin reduction). Conditions: forward reaction, 2 mM glycerol, 5 mM MgCl2, 50 mM Tris HCl pH 7.5, 37 °C, 10 mM N-ethylmaleimide. From the text:
(§1) coupled fluorescence assay (ADP hexokinase, G6P dehydrogenase, diaphorase; resazurin reduction) on EhGK (rEhGK, recombinant E. histolytica glycerol kinase)
(In general: Alamar Blue is a resazurin reagent that responds to reducing activity.)

Substrate in data set [2]: OCC(O)CO
Described as above. Conditions: forward reaction, 2 mM ATP, 5 mM MgCl2, 50 mM Tris HCl pH 7.5, 37 °C, 10 mM N-ethylmaleimide.
From the text: as §1

Substrate in data set [3]: O=P(O)(O)OC[C@H](O)CO
Briefly: purified protein. The following applies: reverse reaction, 1 mM ADP, 5 mM MgSO4, 1 mM EDTA, 50 mM Tris HCl pH 7.5.

Substrate in data set [4]: Nc1ncnc2c1ncn2[C@@H]1O[C@H](COP(=O)(O)OP(=O)(O)O)[C@@H](O)[C@H]1O
Briefly: purified protein. The following applies: reverse reaction, 40 mM G3P, 5 mM MgSO4, 1 mM EDTA, 50 mM Tris HCl pH 7.5.

B1: EhGK (rEhGK, recombinant E. histolytica glycerol kinase) (Entamoeba histolytica HM-1:IMSS) (protein)
chain: MKYILAIDQGTTSTRVILFDEKCQSIHTEQEEFDSIFPHPGWVEQDPEVIYTSVVNLMKKCLVNTGINKEDIAAIGITNQRETTVMWDKRTGKPIYNAIVWQSKQSGNETSYLMEKGYEEIFQSKTGLVLNPYFSASKIMWIFNNVEGAKALAEEGVLLFGTIDTWIIYNLTGGQSHSTDISNAARTLLFNIYEKKWDDELLAKTNIPKSILPIVKQSSDDFGIVSTIQEFNGIHITGVAGDQQASLFGHGSPIGGCKSTYGTGCFVVKNIGDTIKEIPKGLLATVGWEINGKITYALEGTVMTAGAALKWIRDIGILKDYNEISKIVTSKNGGVYFVPAFQGLGTPYWDDDVRGIIVGLTSGTGKGELVRATLESIALQCAQVIEIMGKINEIKVDGGVSRSDCMLQFQADICNCTVIRLKEKEITAMGAAMLAGLYVHLFKEDELDSMRVIEHVFKPQMSEEERKQIFSVWNKAVESARSFVH
As usually defined, the Km is the concentration of substrate that gives half-maximal velocity. A word on the Vmax: it is the rate approached at saturating substrate. In the case of B1, the Michaelis constant (Km) in data set [1] is 230 ± 30 µM; in data set [2], 160 ± 30 µM; in data set [3], 8710 ± 2460 µM; in data set [4], 140 ± 40 µM. Moreover, the maximal velocity (Vmax) in data set [1] came out at 1.3 µmol/min/mg; in data set [2], 1.48 µmol/min/mg; in data set [3] it was 1.28 µmol/min/mg; in data set [4], 1.2 µmol/min/mg.
